Patent publication US20260201347A1, “ARTIFICIAL BIFUNCTIONAL ENZYME COMPRISING A MYELOPEROXIDASE ACTIVITY AND A GLUCOSE OXIDASE ACTIVITY AND APPLICATIONS THEREOF” (UNIVERSITÉ DE BORDEAUX, priority 2022, published 2026)
Where “and” joins values, the source holds several entries; their conditions need not be identical. Equal entries are not always repeated.

Substrate: OC[C@H]1OC(O)[C@H](O)[C@@H](O)[C@@H]1O
Assay: Coupled active sites, HOCl production from glucose, APF assay (Table 9), linker LEKREAEALEKREAEA
Type: biochemical, Rhodopirellula baltica / Penicillium amagasakiens
Settings: fixed NaCl 20 mM, pH7.5, pH 7.5
Description: Each experiment was performed in triplicate.
The activity of the two active sites was then assessed in conjunction to each other (FIG. 1).
Briefly, the aim was to measure the production of HOCl from glucose and NaCl as respective substrates of the enzymes, using the APF probe. Two types of kinetics were performed: • i) kinetics at various concentrations of glucose and a fixed concentration of NaCl, and • ii) kinetics at various concentration of NaCl and a fixed concentration of glucose.

B1: RbMPO-LEKREAEALEKREAEA-GOx chimera (Rhodopirellula baltica myeloperoxidase, SEQ ID NO: 10; linker SEQ ID NO: 6; Penicillium amagasakiens glucose oxidase, SEQ … (protein)
chain: MLFWSKRTRKHPGRKRRRLRSEQLESRQLLAADFGGYRHNIYDAEDVNDDGRVSAIDALLVINAMTSETSRDENVFTDVNGDGRRSALDALRVINRIERGDVFPIDTSGDEDLNTLLPEMPSEVRSIDGSGNNPNDHLWGSVGQRLIRMAPAAYGDGISTLAGANRPSAREVSNVLSAMNTSQVLNDRGLSAFVYVWGQFIDHDLGLTESDEHGEAIDISVPEGDLWFDPMGSGEAVIPMTRTPIADGTGTSVGNPAQQFNQITAFIDGSMVYGSDAATAERLRTFAGGRLAISDNGLLPMDESGMVIAGDVRASENVGLTAIQTLFVREHNRLADEIFAADPEATDEEIYQRARLVVASLIQSITYNEFLPALLGQRAMDSYRGYDASVNPGIANEFSTAAFRLGHSTLRDEVGFMSNDGRESKDEMELKDAFFHASMLEETGIDSLLKFDASVQAQEIDLAVVDSLRNFLFGPPGAGGLDLVAMNIQRGRDHGLSDYNTTRQAYGLDRVETFDQITGDVELQQKLASLYGTVDNIDLWVGLMAEDHQHDASVGELTGLIIADQFQRTRDGDRFFYKNVLTDSEVESIERSTLADLIERNTSVDGLQENVFFMQVELRGRVILASSIPPNTMPSEVREEEIRGVSGMAIELIDASGKLVDSTVSDQHGNYRFRALSETGDYQVRLSESGEAMDVLVAHGAERIRGLDFIVLALEKREAEALEKREAEAYLPAQQIDVQSSLLSDPSKVAGKTYDYIIAGGGLTGLTVAAKLTENPKIKVLVIEKGFYESNDGAIIEDPNAYGQIFGTTVDQNYLTVPLINNRTNNIKAGKGLGGSTLINGDSWTRPDKVQIDSWEKVFGMEGWNWDNMFEYMKKAEAARTPTAAQLAAGHSFNATCHGTNGTVQSGARDNGQPWSPIMKALMNTVSALGVPVQQDFLCGHPRGVSMIMNNLDENQVRVDAARAWLLPNYQRSNLEILTGQMVGKVLFKQTASGPQAVGVNFGTNKAVNFDVFAKHEVLLAAGSAISPLILEYSGIGLKSVLDQANVTQLLDLPVGINMQDQTTTTVSSRASSAGAGQGQAVFFANFTETFGDYAPQARDLLNTKLDQWAEETVARGGFHNVTALKVQYENYRNWLLDEDVAFAELFMDTEGKINFDLWDLIPFTRGSVHILSSDPYLWQFANDPKFFLNEFDLLGQAAASKLARDLTSQGAMKEYFAGETLPGYNLVQNATLSQWSDYVLQNFRPNWHAVSSCSMMSRELGGVVDATAKVYGTQGLRVIDGSIPPTQVSSHVMTIFYGMALKVADAILDDYAKSA
notes: 6His (in the pET21a vector behind the XhoI site); made in house; host or cells: E. coli BL21Star (DE3)
Km (other: dimer/monomer): 2020 ± 1070 µM
Km (other: excluded): 14170 ± 4620 µM
kcat (other: excluded): 0.00015 s⁻¹
kcat/Km (other: excluded): 0.01 ± 0.004 M⁻¹ s⁻¹
Km (other: trimer): 770 ± 500 µM
kcat (other: trimer): 0.00137 s⁻¹
kcat/Km (other: trimer): 1.7 ± 1.34 M⁻¹ s⁻¹ and 1.77 M⁻¹ s⁻¹
